Results from the supplement of paper PMC9170038.

Experiments:
MS2 coat protein [1] = assay: apparent KD of MS2 coat protein; designed switch direction (-1 OFF switch, 1 ON switch): 1; higher = weaker reporter binding; conditions: Eterna round: R98
Procedure: (§1)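 RNA-MaP: designed FMN/MS2 RNA switches (84 nt design region) are transcribed on-chip within common flanks and titrated with SNAP-549-labelled MS2 coat protein (about 1-3000 nM) in 100 mM Tris pH 7.5, 80 mM KCl, 4 mM MgCl2, without or with 200 uM FMN. Median apparent KD per design; activation ratio = KD,OFF / KD,ON.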

MS2 coat protein [2] = assay: apparent KD of MS2 coat protein; higher = weaker reporter binding; conditions: Eterna round: R101
Procedure: as §1

| Sequence | apparent KD of MS2 coat protein (MS2 coat protein [1]; input ligand: FMN 200 uM) [nM] | apparent KD of MS2 coat protein (MS2 coat protein [1]; input ligand: none) [nM] | apparent KD of MS2 coat protein (MS2 coat protein [2]; input ligand: FMN 200 uM) [nM] | apparent KD of MS2 coat protein (MS2 coat protein [2]; input ligand: none) [nM] |
| --- | --- | --- | --- | --- |
| ACCAAUGGGUGAGGAUAUGCACAGGAUCACCGUGUAGAAGGCAUCAGGUAGAAGGUGCAGAGGAUCACCCUGUAAGGAUAUAUC [pwkr2 ssNG1 DX.14] | 885 | 563 | – | – |
| AGACCUGCUCAGAAGGUGGGAACGAGGCUGGAAACAGCCUCGAAAUUAAAUCCUUGAGGAUCACCCAAGGAUAUGAGCAGGUCA [#SharedSequence - IExNG2: 12] (puzzle (switch architecture): Inverted Exclusion NG 2) | – | – | 84.3 | 10.3 |
| GUCCCAGUCACAGGAUAUGGCUCCGUAACGGAACCAGAAGGGUGAUAUUCAGAAAACACACAUGAGGAUCACCCAUGUAAUAAA [Tiorbiti] | 164 | 469 | – | – |
| UGGAUCAAUACAGGAUAUGGUGACGCACAUGAGGAUCACCCAUGUCCGCAGCGUGCUAAGCACGCCCAGAAGGGUAUUGACUUG [Enxe] | 106 | 858 | – | – |
| GGUCGACCUCAAGGAUAUGGACUGCAAAGCAGUCCAGAAGGUGAGGAUCACCCACCUACGGUCAGGAAACUGACCGAUCGACCA [#SharedSequence - ExNG1-2] (puzzle (switch architecture): Exclusion NG 1) | – | – | 117 | 19.8 |
| UAAUUAUGGUGAGGAUAUGCACAGGAUCACCGUGUAGAAGGCAUCAGGUAGAAGGUGCAGAGGAUCACCCUGUAAGGAUAUAUC [pwkr2 ssNG1 DX.18] | 102 | 722 | – | – |
| GCGCGCGGUUGAGGAUAUUUGCGUGCGGAUCGCCCGCGCACAUGAGGAUCACCCAUGUACGAGUAGGAGAAGGUGGCCCGUGUG [Same StateNG2] | 178 | 236 | – | – |
| AAAUAAAAUAUAGGAUAUGGAAACAUGAGGAUCACCCAUGUAAAAUAAAAUAAAUAAUAAUAUAACCAGAAGGAUAAAAUAAAA [LRO001_SS NG 2] | 40.2 | 30.6 | – | – |
| AGAGCUGCUCAGAAGGAGGAUCACCCUUUCGAAAGAAAUACGGAGGCUGAAAAGCCUCCGAAAUCUUAGGAUAUGAGCAGCUCA [#SharedSequence - IExNG2: 6] (puzzle (switch architecture): Inverted Exclusion NG 2) | – | – | 166 | 153 |
| UCAACAAGGUGAGGAUAUGCACAGGAUCACCGUGUAGAAGGCAUCAGGUAGAAGGUGCAGAGGAUCACCCUGUAAGGAUAUACA [pwkr2 ssNG1 DX.9] | 526 | 1320 | – | – |
| CUUACUUUGUAGAAGGGUGACAUGAGGAUCACCCAUGUGCGUCUCCUGAAAGACCAGGGUACGCCACAGGAUAUACAAAGUAAG [Tigeatdi] (puzzle (switch architecture): Inverted Same State NG 2) | – | – | 59.8 | 116 |
| GUAGCUAUCGGAGGAUAUUCAUACCGGAAACGGACAUGAGGAUCACCCAUGUGGCGAAAGCCAUGGGAGAAGGCCGAUAGCUAC [jl-sng2-3.01 #MUTATE_MAP] (puzzle (switch architecture): Same State NG 2) | – | – | 52.2 | 856 |
| UGGGAAUGAACAUGAGGAUCACCCAUGUCCCGGAAACGGAAUGAGGAUAUCCAUAGCAAAGCUAUGGAGAAGGCAUGGGUCCCA [SaneState 20 - Jieux - Same State NG 2] | 475 | 756 | – | – |
| AAAUAAAUUCAAGGAUAUGACUCCGAAACGGAGUCAGAAGGUGAGGAUCACCCACCUAUGAUCAGACCUCAGGAAACUGAGGUC [#SharedSequence ExNG1 - 39] (puzzle (switch architecture): Exclusion NG 1) | – | – | 6.56 | 6.19 |
| AUGGUUGUCGUAGGAUAUGUAGGAUAUUCCUACAUGAGGAUCACCCAUGUUCGCAUGGAAGAAGGACAGAAGGACGAUGACCAA [salish99_SSNG2_008 #endbits investigation] (puzzle (switch architecture): Same State NG 2) | – | – | 9.65 | 840 |
| AAUAAUCAGGUAGGAUAUGCUCAGGAUAACUGAGCAGAAGGACUAGAAACCUGAGGAUCACCCAGGUAACUGGAAUAAUAAUAA [Same State NG1 - A3C, U17G Submission 6B] | 57.4 | 121 | – | – |
| GCAGCUAAUGCAGGAUAUCAGCACGUGUAGUGCUGAGAAGGGCACAUGAGGAUUCUGUCUGUGAUCAAUUAAUAUUAAUGCUGC [salish99#hingeEx3_55-58_006] (puzzle (switch architecture): Exclusion NG 1) | – | – | 11.5 | 30.4 |
| CAAUUGGCACAGAAGGGUGACAUGAGGAUCACCCAUGUAGCGUGGCUCUCAGGAGGAGCCACGCCACAGGAUAUGUGCCGGCAC [Anrilaage] (puzzle (switch architecture): Inverted Same State NG 2) | – | – | 102 | 177 |

| Sequence | apparent KD of MS2 coat protein (MS2 coat protein [1]; input ligand: FMN 200 uM) [nM] | apparent KD of MS2 coat protein (MS2 coat protein [1]; input ligand: none) [nM] | apparent KD of MS2 coat protein (MS2 coat protein [2]; input ligand: FMN 200 uM) [nM] | apparent KD of MS2 coat protein (MS2 coat protein [2]; input ligand: none) [nM] |
| --- | --- | --- | --- | --- |
| CGGAAUUGUACAGGAUAUGAGGGUGCCUGAGCCUCAGAAGGGUAGACCGACAUGAGGAUCACCCAUGUAUGCGGAUAACGUCCG [Sobela] | 1660 | 224 | – | – |
| AAUAAACAAUAAAAGACUGGAGCAAACUUCUGAGGAUCACCCAGAAGGCGUCACCUAAUAGGUGACGAGGAUAUGGAGCUCCAG [#SharedSequence IExNG# - 2] (puzzle (switch architecture): Inverted Exclusion NG 3) | – | – | 6.36 | 5.76 |
| AUGGGUUAAGGAGGAUAUAGAGGGAGGAGUAAACAUGAGGAUCACCCAUGUAUUUAAUUAGUUUACUAGAAGGCUUGUGAUUGU [1.8082e+07] | 52.7 | 33.9 | – | – |
| UCACUCACGUUAGGAUAUGGAUCGGAAAACGAUCCAGAAGGAACCUGCAAACCUGAGGAUCACCCGGGUUCCAAUAACGAGUGA [SameSame 9 - Jieux - Same State NG 1] | 458 | 778 | – | – |
| CGUUGUUCCGCAGGAUAUGUAUUGGAUUACAAUACAGAAGGGCGAUAACAUGAGGAUCACCCAUGUGUGGACAAUGAGGAAGAG [SameState #38 NG1] | 54.9 | 789 | – | – |
| UCCGCUAUCGCAGGAUAUUACAUGGGAAAGAGUACAUGAGGAUCACCCAUGUAAAAGAUCAUAAAUAAGAAGGGCGAUAGCGGA [Lame State 9 - Jieux - Same State NG 2] | 214 | 18.8 | – | – |
| GGAGACCACACAGGAUAUGCUGGACUUUGUCCAGCAGAAGGGUGUUUAACAUGAGGAUCACCCAUGUAGGUCUCCAAAUUUAAU [Denovo 59] | 17.7 | 60.5 | – | – |
| AGGUAGGUCACAGGAUAUCCCGUGAGCUACAUGAGGAUCACCCAUGUAUCACGACGAAAGAAGAAGGAGAAGGGUGACCCUGAU [Atqula] | 28.3 | 186 | – | – |
| CACGUCCUCACAGGAUAUGCUGGACUUUGUCCAGCAGAAGGGUGACAUGAGGAUCACCCAUGUUAAAGGACGUGUAUAUUUAAU [Denovo 24] | 126 | 652 | – | – |
| AAUAGUGGCGUAGGAUAUCUGCGUACAUGAGGAUCACCCAUGUCUCCCAGCUGCUGAGCUGGGACAGAGAAGGGCGACCGCAUA [Digece] | 76.4 | 226 | – | – |
| AGUUACAAACUCAACAUGAGGAUCACCCAUGUACUCUCAUGUAAGGAUAUACAUUCGUAUAGAAAGUAGAAGGUACUAAUUAUG [JR_SSNG3_Sub90] | 485 | 659 | – | – |
| AUUAACGGAGCUACAUGAGGAUCACCCAUGUACGGGUGAUCCUAGGAUAUGCCCGCAACUGUGUCGCAGAAGGAGGGUUGCCCA [Soterixe] | 37.6 | 25.6 | – | – |
| CACUCCCGGUGAGGAUAUGCACAGGAUCACCGUGUAGAAGGCAUCAGGUAGAAGGUGCAGAGGAUCACCCUGUAAGGAUAUAUC [pwkr2 ssNG1 DX.12] | 94.5 | 300 | – | – |
| GCUUGCGACGCAGGAUAUGGGUGCCUAAACACGAGGAUCACCCGUGUAAAGGAAGCGAAAAGCUCUCAGAAGGGCGUCGCAGGC [United States 7 - Jieux - Same State NG 2] | 17.2 | 19.2 | – | – |
| CUCCCUCCCUCCCUCCCUCCCUCCGAGGAUAUCCCAAACUCCCUCCCUCCCUCCCUCCCAAAUUCCCAGAAGGCCCUUUUUCCC [2nd design] (puzzle (switch architecture): Small Loop Same State NG 3) | – | – | 4.61 | 46.4 |
| GGCGACGGUGUAGGAUAUGUGGGUUUCAAAGGGAUAGAAGGAUAGUUGGGAAUUAGGACAAGCAAACAUGAGGAUCACCCAUGU [Same STate NG 1] | 34.8 | 44 | – | – |
| CAGGCUGCCAGAGGAUAAUGGACAUGAGGAUCACCCAUGUGUCAGGAUAUGGGUUUCACAUGGACUCAGAAGGGACCAGCUCGA [Raraator] | 33.8 | 131 | – | – |
| GGCUAACGGGCUAACAUGAGGAUCACCCAUGUGGACUCAUGGUAGGAUAUGCUGUACUUUGUACAGCAGAAGGGCCGGUGAGCC [Mat - Same State NG 3 - JL Mod - D9] | 283 | 726 | – | – |
